In article PMC4919469, “Investigation of the Interaction between Cdc42 and Its Effector TOCA1” (The Journal of Biological Chemistry, 2016) one finds Kd data, which are given here for six molecules.

The labels stand for the following.
T1: TOCA1 HR1-SH3 (residues 330–545) (Xenopus tropicalis, UniProt Q6GUF4 330-545)
T1 construct: Xenopus tropicalis TOCA1, C-terminally extended HR1 construct, residues 330-545, in pMAT10-P; also called HR1-SH3 protein; TOCA1 330–545; source: E. coli, purified (Ni-NTA, 3C protease cleavage, gel filtration); not shown: His, N-terminal, cleaved; MBP, N-terminal, cleaved
T1 sequence (looked up): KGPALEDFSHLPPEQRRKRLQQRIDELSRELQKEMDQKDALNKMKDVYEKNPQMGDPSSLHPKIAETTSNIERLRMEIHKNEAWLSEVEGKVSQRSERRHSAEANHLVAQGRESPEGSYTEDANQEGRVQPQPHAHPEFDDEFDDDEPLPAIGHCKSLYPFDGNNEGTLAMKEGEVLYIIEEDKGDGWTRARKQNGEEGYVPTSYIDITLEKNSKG

B1: CIP4 HR1 domain (residues 388–481) (domain or fragment, human, UniProt Q15642 388-481, looked up)
chain: TEDFSHLPPEQQRKRLQQQLEERSRELQKEVDQREALKKMKDVYEKTPQMGDPASLEPQIAETLSNIERLKLEVQKYEAWLAEAESRVLSNRGD
notes: also called HR1^CIP4; source: E. coli BL21, purified (glutathione-agarose, 3C protease cleavage, gel filtration); not shown: GST, N-terminal, cleaved
B2: N-WASP G protein-binding domain (GBD) (residues 197–255) (domain or fragment, Xenopus tropicalis, UniProt Q6NX29 197-255, looked up)
chain: KKKLTKADIGTPSNFQHIGHVGWDPNTGFDVNNLDPELKKLFDLCGISEAQLKDKETSK
notes: also called N-WASP GBD; N-WASP CRIB domain; source: E. coli BL21-CodonPlus-RIL, purified (glutathione-agarose, 3C protease cleavage, gel filtration); not shown: GST, N-terminal, cleaved
B3: Cdc42Δ7Q61L (domain or fragment)
chain: not shown
notes: Human Cdc42 with seven residues deleted from the C terminus and the mutation Q61L; cloned into pGEX-2T; Loaded with [3H]GTP for SPA and with GMPPNP for NMR; 15N- or 15N/13C-labelled in some NMR experiments; also called truncated Cdc42; Cdc42Δ7Q61L·[3H]GTP; source: E. coli BL21, purified (glutathione-agarose, thrombin cleavage, gel filtration)
B4: TOCA1 HR1 domain (residues 330–426) with C-terminal His6 tag (domain or fragment, Xenopus tropicalis, UniProt Q6GUF4 330-426, looked up)
chain: KGPALEDFSHLPPEQRRKRLQQRIDELSRELQKEMDQKDALNKMKDVYEKNPQMGDPSSLHPKIAETTSNIERLRMEIHKNEAWLSEVEGKVSQRSE
notes: Xenopus tropicalis TOCA1 HR1 domain, residues 330-426, from cDNA NM_001005148, in pGEX-HisP; also called HR1-His6; C-terminally His-tagged TOCA1 HR1 domain construct; source: E. coli BL21, purified (glutathione-agarose, 3C protease cleavage, gel filtration); not shown: GST, N-terminal, cleaved; His6, C-terminal, kept
B5: TOCA1 HR1 domain (residues 330–426), untagged (domain or fragment, Xenopus tropicalis, UniProt Q6GUF4 330-426, looked up)
chain: B4 chain
notes: Xenopus tropicalis TOCA1 (transducer of Cdc42-dependent actin assembly protein 1) HR1 domain, residues 330-426, from cDNA NM_001005148, in pGEX-6P-1; 15N- or 13C/15N-labelled in some NMR experiments; also called HR1^TOCA1; TOCA HR1 domain; source: E. coli BL21, purified (glutathione-agarose, 3C protease cleavage, gel filtration); not shown: GST, N-terminal, cleaved
B6: FBP17 HR1 domain (residues 385–486) (domain or fragment, Xenopus laevis, UniProt Q6GNV5 385-486, looked up)
chain: LKRGGSTPEDFSNLPPEQRRKKLQQKVDELNKDIQKEIDQRDALTKMRDVYTKNPQMGDAASVGQKLVEIGNNIEKLRVEVQKFEGWLAEVEGRLSARNDSS
notes: Xenopus laevis FBP17 HR1 domain, residues 385-486, from IMAGE clone 5514481, in pGEX-6P-1; also called HR1^FBP17; source: E. coli BL21, purified (glutathione-agarose, 3C protease cleavage, gel filtration); not shown: GST, N-terminal, cleaved

What all share (settings): both partners purified
The target in one test is T2, full-length Cdc42Q61L (human, UniProt P60953 1-191, Q61L).
T2 construct: Human Cdc42, full length, Q61L; cloned into pGEX-6P-1; confirmed as full-length by mass spectrometry; Loaded with [3H]GTP for SPA; also called Cdc42FLQ61L; full-length [3H]GTP·Cdc42; source: E. coli BL21, purified (glutathione-agarose, 3C protease cleavage, gel filtration)
In words: scintillation proximity assay; competition; free effector domain titrated into 30 nM Cdc42·[3H]GTP and 30 nM GST-ACK (in Fig. 7B GST-ACK or GST-WASP GBD) immobilised on a fluoromicrosphere; Kd from competition binding isotherms.

In test [1] the target is B3. Described as above.
For test [2], the target named is T1, TOCA1 HR1-SH3 (residues 330–545). Described as above.
Test [3] concerns the target B3. Briefly: scintillation proximity assay; direct binding; 30 nM GST-PAK, GST-ACK or His-tagged TOCA1 construct attached to a fluoromicrosphere via an anti-GST or anti-His antibody; Cdc42·[3H]GTP at increasing concentrations; apparent Kd from a direct binding isotherm.

T2 sequence (P60953 whole entry Q61L): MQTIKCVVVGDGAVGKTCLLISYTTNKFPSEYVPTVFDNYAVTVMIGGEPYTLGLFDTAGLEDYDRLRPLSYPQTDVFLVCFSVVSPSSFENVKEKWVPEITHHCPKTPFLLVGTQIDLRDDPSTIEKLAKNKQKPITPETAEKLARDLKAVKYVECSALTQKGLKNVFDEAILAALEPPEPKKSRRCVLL
Sequence of Cdc42Δ7Q61L (P60953 1-184 Q61L): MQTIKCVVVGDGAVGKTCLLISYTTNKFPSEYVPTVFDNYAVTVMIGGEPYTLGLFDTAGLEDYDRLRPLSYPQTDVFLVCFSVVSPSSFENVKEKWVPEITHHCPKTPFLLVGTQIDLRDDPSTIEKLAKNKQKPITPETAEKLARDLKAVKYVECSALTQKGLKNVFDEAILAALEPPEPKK

For the molecule B1, the Kd with full-length Cdc42Q61L amounted to 5 µM.
For the molecule B2, the Kd with Cdc42Δ7Q61L [1] is 0.037 µM.
For the molecule B3, the Kd in test [2] is 4.6 µM.
B4: the Kd with Cdc42Δ7Q61L [3] is greater than 1 µM.
As to B5, the results for the Kd with Cdc42Δ7Q61L [1] and with full-length Cdc42Q61L were 6.05 µM and 5.39 µM, respectively.
Molecule B6 gave a Kd with full-length Cdc42Q61L of 10 µM.
